B1: GpH7-A5/GpH7-B3 variant L234_07I/GpL16-k0 (antibody, human IgG1, kappa)
heavy 1: not shown
heavy 2: not shown
light: DIVMTQSPLSLPVTPGEPASISCQASESLVHSNRNTYLHWYLQKPGQSPQLLIYKVSNRFSGVPDRFSGSGSGTDFTLKISRVEAEDVGVYYCSQNTHVPPTFGQGTKVEIERTVAAPSVFIFPPSDEQLKSGTASVVCLLNNFYPREAKVQWKVDNALQSGNSQESVTEQDSKDSTYSLSSTLTLSKADYEKHKVYACEVTHQGLSSPVTKSFNRGEC
notes: also called He Ab L234_07I
B2: GpH7-A5/GpH7-B3 variant P238_10E/GpL16-k0 (antibody, human IgG1, kappa)
heavy 1: not shown
heavy 2: not shown
light: B1 light
notes: also called He Ab P238_10E
B3: GpH7-A5/GpH7-B3 variant S324_02A/GpL16-k0 (antibody, human IgG1, kappa)
heavy 1: not shown
heavy 2: not shown
light: B1 light
notes: also called He Ab S324_02A
B4: GpH7-A5/GpH7-B3 variant S267_02A/GpL16-k0 (antibody, human IgG1, kappa)
heavy 1: not shown
heavy 2: not shown
light: B1 light
notes: also called He Ab S267_02A
B5: GpH7-A5/GpH7-B3 variant S337_20W/GpL16-k0 (antibody, human IgG1, kappa)
heavy 1: not shown
heavy 2: not shown
light: B1 light
notes: also called He Ab S337_20W
B6: GpH7-A5/GpH7-B3 variant T335_15Y/GpL16-k0 (antibody, human IgG1, kappa)
heavy 1: not shown
heavy 2: not shown
light: B1 light
notes: also called He Ab T335_15Y
B7: GpH7-A5/GpH7-B3 variant S324_15Y/GpL16-k0 (antibody, human IgG1, kappa)
heavy 1: not shown
heavy 2: not shown
light: B1 light
notes: also called He Ab S324_15Y
B8: GpH7-A5/GpH7-B3 variant S267_09D/GpL16-k0 (antibody, human IgG1, kappa)
heavy 1: not shown
heavy 2: not shown
light: B1 light
notes: also called He Ab S267_09D
B9: GpH7-A5/GpH7-B3 variant T335_07I/GpL16-k0 (antibody, human IgG1, kappa)
heavy 1: not shown
heavy 2: not shown
light: B1 light
notes: also called He Ab T335_07I
B10: GpH7-A5/GpH7-B3 variant T335_13S/GpL16-k0 (antibody, human IgG1, kappa)
heavy 1: not shown
heavy 2: not shown
light: B1 light
notes: also called He Ab T335_13S
B11: GpH7-A5/GpH7-B3 variant S324_16H/GpL16-k0 (antibody, human IgG1, kappa)
heavy 1: not shown
heavy 2: not shown
light: B1 light
notes: also called He Ab S324_16H
B12: GpH7-A5/GpH7-B3 variant L234_20W/GpL16-k0 (antibody, human IgG1, kappa)
heavy 1: not shown
heavy 2: not shown
light: B1 light
notes: also called He Ab L234_20W
B13: GpH7-A5/GpH7-B3 variant S337_04F/GpL16-k0 (antibody, human IgG1, kappa)
heavy 1: not shown
heavy 2: not shown
light: B1 light
notes: also called He Ab S337_04F
B14: GpH7-A5/GpH7-B3 variant S337_15Y/GpL16-k0 (antibody, human IgG1, kappa)
heavy 1: not shown
heavy 2: not shown
light: B1 light
notes: also called He Ab S337_15Y
B15: GpH7-A5/GpH7-B3 variant P271_01G/GpL16-k0 (antibody, human IgG1, kappa)
heavy 1: not shown
heavy 2: not shown
light: B1 light
notes: also called He Ab P271_01G
B16: GpH7-A5/GpH7-B3 variant S337_18N/GpL16-k0 (antibody, human IgG1, kappa)
heavy 1: not shown
heavy 2: not shown
light: B1 light
notes: also called He Ab S337_18N
B17: GpH7-A5/GpH7-B3 variant P238_09D/GpL16-k0 (antibody, human IgG1, kappa)
heavy 1: not shown
heavy 2: not shown
light: B1 light
notes: also called He Ab P238_09D
B18: GpH7-A5/GpH7-B3 variant S298_14T/GpL16-k0 (antibody, human IgG1, kappa)
heavy 1: not shown
heavy 2: not shown
light: B1 light
notes: also called He Ab S298_14T
B19: GpH7-A5/GpH7-B3 variant S337_09D/GpL16-k0 (antibody, human IgG1, kappa)
heavy 1: not shown
heavy 2: not shown
light: B1 light
notes: also called He Ab S337_09D
B20: GpH7-A5/GpH7-B3 variant S337_14T/GpL16-k0 (antibody, human IgG1, kappa)
heavy 1: not shown
heavy 2: not shown
light: B1 light
notes: also called He Ab S337_14T
B21: GpH7-A5/GpH7-B3 variant S337_10E/GpL16-k0 (antibody, human IgG1, kappa)
heavy 1: not shown
heavy 2: not shown
light: B1 light
notes: also called He Ab S337_10E
B22: GpH7-A5/GpH7-B3 variant Q295_14T/GpL16-k0 (antibody, human IgG1, kappa)
heavy 1: not shown
heavy 2: not shown
light: B1 light
notes: also called He Ab Q295_14T
B23: GpH7-A5/GpH7-B3 variant T335_10E/GpL16-k0 (antibody, human IgG1, kappa)
heavy 1: not shown
heavy 2: not shown
light: B1 light
notes: also called He Ab T335_10E

Target: T1, FcγRIIIa extracellular domain with C-terminal His tag (human, UniProt P08637 17-208)
T1 construct: extracellular domain; also called FcgRIIIa; 3a; not shown: His tag at the C terminus
Test: SPR relative binding; GpH7-A5/GpH7-B3/GpL16-k0 = 100
Description: Analysis of interaction between objective antibody and the FcγR was carried out using Biacore T100 (GE Healthcare). HBS-EP+ (GE Healthcare) was used as the running buffer, and the measurement temperature was set to 25° C. Chips produced by immobilizing the antigen peptide by the amine coupling method to a Series S Sencor Chip CM5 (GE Healthcare), or alternatively, chips produced by allowing preliminarily biotinylated antigen peptides to interact with and immobilize onto a Series S Sensor Chip SA (certified) (GE Healthcare) were used. Antibodies of interest were captured onto an antigen peptide-immobilized chip, and allowed to interact to each FcγR diluted with running buffer. To regenerate and repeatedly use the chip, the antibodies captured on the chip were washed off by reacting 10 mM glycine-HCl, pH 1.5.
The FcγR-binding activity of each antibody was assessed primarily using as an indicator the FcγR-binding activity and dissociation constant for FcγR.

T1 sequence (P08637 17-208): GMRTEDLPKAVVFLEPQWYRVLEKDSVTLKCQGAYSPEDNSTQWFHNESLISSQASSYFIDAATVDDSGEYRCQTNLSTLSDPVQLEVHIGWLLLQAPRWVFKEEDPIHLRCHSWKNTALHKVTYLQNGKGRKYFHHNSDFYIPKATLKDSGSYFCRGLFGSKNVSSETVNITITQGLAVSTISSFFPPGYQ

| He/Con_3a | Binder |
| --- | --- |
| 103 % of control | B1 |
| 105 % of control | B2 |
| 104 % of control | B3 |
| 150 % of control | B4 |
| 101 % of control | B5 |
| 104 % of control | B6 |
| 101 % of control | B7 |
| 181 % of control | B8 |
| 107 % of control | B9 |
| 105 % of control | B10 |
| 104 % of control | B11 |
| 107 % of control | B12 |
| 101 % of control | B13 |
| 102 % of control | B14 |
| 113 % of control | B15 |
| 104 % of control | B16 |
| 106 % of control | B17 |
| 113 % of control | B18 |
| 110 % of control | B19 |
| 101 % of control | B20 |
| 105 % of control | B21 |
| 115 % of control | B22 |
| 107 % of control | B23 |
